Patent publication US20130210709A1 (ANCHOR THERAPEUTICS, published 2013)
Square brackets hold non-standard residues; d marks the D form. * marks the point of attachment. Palmitoyl = CCCCCCCCCCCCCCCC(=O)*

B1: CXCR4 i1 loop compound 130 (peptide)
peptide: Palmitoyl-MAYQKKLRSMTDKYRL-NH2
SMILES: CCCCCCCCCCCCCCCC(=O)N[C@@H](CCSC)C(=O)N[C@@H](C)C(=O)N[C@@H](Cc1ccc(O)cc1)C(=O)N[C@@H](CCC(N)=O)C(=O)N[C@@H](CCCCN)C(=O)N[C@@H](CCCCN)C(=O)N[C@@H](CC(C)C)C(=O)N[C@@H](CCCNC(=N)N)C(=O)N[C@@H](CO)C(=O)N[C@@H](CCSC)C(=O)N[C@H](C(=O)N[C@@H](CC(=O)O)C(=O)N[C@@H](CCCCN)C(=O)N[C@@H](Cc1ccc(O)cc1)C(=O)N[C@@H](CCCNC(=N)N)C(=O)N[C@@H](CC(C)C)C(N)=O)[C@@H](C)O
B2: CXCR4 i1 loop compound 131 (peptide)
peptide: Palmitoyl-MGAQKKLRSMTDKYRL-NH2
SMILES: CCCCCCCCCCCCCCCC(=O)N[C@@H](CCSC)C(=O)NCC(=O)N[C@@H](C)C(=O)N[C@@H](CCC(N)=O)C(=O)N[C@@H](CCCCN)C(=O)N[C@@H](CCCCN)C(=O)N[C@@H](CC(C)C)C(=O)N[C@@H](CCCNC(=N)N)C(=O)N[C@@H](CO)C(=O)N[C@@H](CCSC)C(=O)N[C@H](C(=O)N[C@@H](CC(=O)O)C(=O)N[C@@H](CCCCN)C(=O)N[C@@H](Cc1ccc(O)cc1)C(=O)N[C@@H](CCCNC(=N)N)C(=O)N[C@@H](CC(C)C)C(N)=O)[C@@H](C)O
B3: CXCR4 i1 loop compound 132 (peptide)
peptide: Palmitoyl-MGYAKKLRSMTDKYRL-NH2
SMILES: CCCCCCCCCCCCCCCC(=O)N[C@@H](CCSC)C(=O)NCC(=O)N[C@@H](Cc1ccc(O)cc1)C(=O)N[C@@H](C)C(=O)N[C@@H](CCCCN)C(=O)N[C@@H](CCCCN)C(=O)N[C@@H](CC(C)C)C(=O)N[C@@H](CCCNC(=N)N)C(=O)N[C@@H](CO)C(=O)N[C@@H](CCSC)C(=O)N[C@H](C(=O)N[C@@H](CC(=O)O)C(=O)N[C@@H](CCCCN)C(=O)N[C@@H](Cc1ccc(O)cc1)C(=O)N[C@@H](CCCNC(=N)N)C(=O)N[C@@H](CC(C)C)C(N)=O)[C@@H](C)O
B4: CXCR4 i1 loop compound 133 (peptide)
peptide: Palmitoyl-MGYQAKLRSMTDKYRL-NH2
SMILES: CCCCCCCCCCCCCCCC(=O)N[C@@H](CCSC)C(=O)NCC(=O)N[C@@H](Cc1ccc(O)cc1)C(=O)N[C@@H](CCC(N)=O)C(=O)N[C@@H](C)C(=O)N[C@@H](CCCCN)C(=O)N[C@@H](CC(C)C)C(=O)N[C@@H](CCCNC(=N)N)C(=O)N[C@@H](CO)C(=O)N[C@@H](CCSC)C(=O)N[C@H](C(=O)N[C@@H](CC(=O)O)C(=O)N[C@@H](CCCCN)C(=O)N[C@@H](Cc1ccc(O)cc1)C(=O)N[C@@H](CCCNC(=N)N)C(=O)N[C@@H](CC(C)C)C(N)=O)[C@@H](C)O
B5: CXCR4 i1 loop compound 134 (peptide)
peptide: Palmitoyl-MGYQKALRSMTDKYRL-NH2
SMILES: CCCCCCCCCCCCCCCC(=O)N[C@@H](CCSC)C(=O)NCC(=O)N[C@@H](Cc1ccc(O)cc1)C(=O)N[C@@H](CCC(N)=O)C(=O)N[C@@H](CCCCN)C(=O)N[C@@H](C)C(=O)N[C@@H](CC(C)C)C(=O)N[C@@H](CCCNC(=N)N)C(=O)N[C@@H](CO)C(=O)N[C@@H](CCSC)C(=O)N[C@H](C(=O)N[C@@H](CC(=O)O)C(=O)N[C@@H](CCCCN)C(=O)N[C@@H](Cc1ccc(O)cc1)C(=O)N[C@@H](CCCNC(=N)N)C(=O)N[C@@H](CC(C)C)C(N)=O)[C@@H](C)O
B6: CXCR4 i1 loop compound 135 (peptide)
peptide: Palmitoyl-MGYQKKARSMTDKYRL-NH2
SMILES: CCCCCCCCCCCCCCCC(=O)N[C@@H](CCSC)C(=O)NCC(=O)N[C@@H](Cc1ccc(O)cc1)C(=O)N[C@@H](CCC(N)=O)C(=O)N[C@@H](CCCCN)C(=O)N[C@@H](CCCCN)C(=O)N[C@@H](C)C(=O)N[C@@H](CCCNC(=N)N)C(=O)N[C@@H](CO)C(=O)N[C@@H](CCSC)C(=O)N[C@H](C(=O)N[C@@H](CC(=O)O)C(=O)N[C@@H](CCCCN)C(=O)N[C@@H](Cc1ccc(O)cc1)C(=O)N[C@@H](CCCNC(=N)N)C(=O)N[C@@H](CC(C)C)C(N)=O)[C@@H](C)O
B7: CXCR4 i1 loop compound 136 (peptide)
peptide: Palmitoyl-MGYQKKLASMTDKYRL-NH2
SMILES: CCCCCCCCCCCCCCCC(=O)N[C@@H](CCSC)C(=O)NCC(=O)N[C@@H](Cc1ccc(O)cc1)C(=O)N[C@@H](CCC(N)=O)C(=O)N[C@@H](CCCCN)C(=O)N[C@@H](CCCCN)C(=O)N[C@@H](CC(C)C)C(=O)N[C@@H](C)C(=O)N[C@@H](CO)C(=O)N[C@@H](CCSC)C(=O)N[C@H](C(=O)N[C@@H](CC(=O)O)C(=O)N[C@@H](CCCCN)C(=O)N[C@@H](Cc1ccc(O)cc1)C(=O)N[C@@H](CCCNC(=N)N)C(=O)N[C@@H](CC(C)C)C(N)=O)[C@@H](C)O

target: CXCR4 receptor (human, UniProt P61073 1-352); experiment: cell-based or functional assay
Sequence (P61073 whole entry): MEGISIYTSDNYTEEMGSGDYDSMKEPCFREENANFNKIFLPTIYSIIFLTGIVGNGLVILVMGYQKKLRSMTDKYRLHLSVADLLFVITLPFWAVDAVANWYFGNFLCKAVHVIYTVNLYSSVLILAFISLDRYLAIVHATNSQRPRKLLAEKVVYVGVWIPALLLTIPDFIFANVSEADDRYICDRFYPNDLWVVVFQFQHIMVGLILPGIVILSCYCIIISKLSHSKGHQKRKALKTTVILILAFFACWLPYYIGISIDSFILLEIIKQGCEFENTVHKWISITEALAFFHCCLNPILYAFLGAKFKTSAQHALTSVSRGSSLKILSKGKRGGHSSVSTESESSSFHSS

Binder | IC50 (nM), calcium flux, CCRF-CEM [nM]
Palmitoyl-MGYQKKLRSMTD[dK]YRL-NH2 [CXCR4 i1 loop compound 162] | 291
Palmitoyl-MGYQKKLRSMT[dD]KYRL-NH2 [CXCR4 i1 loop compound 163] | 623
Palmitoyl-MGYQKKLRSM[dT]DKYRL-NH2 [CXCR4 i1 loop compound 164] | 322
Palmitoyl-[dM]GYQKKLRSMTDKYRL-NH2 [CXCR4 i1 loop compound 165] | 112
Palmitoyl-MG[dY]QKKLRSMTDKYRL-NH2 [CXCR4 i1 loop compound 166] | 129
Palmitoyl-MGY[dQ]KKLRSMTDKYRL-NH2 [CXCR4 i1 loop compound 167] | 116
Palmitoyl-MGYQ[dK]KLRSMTDKYRL-NH2 [CXCR4 i1 loop compound 168] | 119
Palmitoyl-MGYQK[dK]LRSMTDKYRL-NH2 [CXCR4 i1 loop compound 169] | 88
Palmitoyl-MGYQKK[dL]RSMTDKYRL-NH2 [CXCR4 i1 loop compound 170] | 72
B1 | 125
Palmitoyl-MGYQKKL[dR]SMTDKYRL-NH2 [CXCR4 i1 loop compound 171] | 72
Palmitoyl-MGYQKKLR[dS]MTDKYRL-NH2 [CXCR4 i1 loop compound 172] | 90
Palmitoyl-MGYQKKLRS[dM]TDKYRL-NH2 [CXCR4 i1 loop compound 173] | 97
B2 | 147
B3 | 213
B4 | 200
B5 | 250
B6 | 175
B7 | 302
